The results in this text go back to paper PMC9668993, “CBP-HSF2 structural and functional interplay in Rubinstein-Taybi neurodevelopmental disorder” (Nature Communications, 2022).

Broadly, the Kd is the constant that tells how readily two partners part at equilibrium.

This assay deals with T1, CBP-Full-HAT, full-catalytic domain of murine CBP (1096-1700), 6 His-tagged (murine, UniProt P45481 1096-1700).
T1 construct: also called CBP core catalytic domain; source: recombinant, purified
T1 sequence (looked up): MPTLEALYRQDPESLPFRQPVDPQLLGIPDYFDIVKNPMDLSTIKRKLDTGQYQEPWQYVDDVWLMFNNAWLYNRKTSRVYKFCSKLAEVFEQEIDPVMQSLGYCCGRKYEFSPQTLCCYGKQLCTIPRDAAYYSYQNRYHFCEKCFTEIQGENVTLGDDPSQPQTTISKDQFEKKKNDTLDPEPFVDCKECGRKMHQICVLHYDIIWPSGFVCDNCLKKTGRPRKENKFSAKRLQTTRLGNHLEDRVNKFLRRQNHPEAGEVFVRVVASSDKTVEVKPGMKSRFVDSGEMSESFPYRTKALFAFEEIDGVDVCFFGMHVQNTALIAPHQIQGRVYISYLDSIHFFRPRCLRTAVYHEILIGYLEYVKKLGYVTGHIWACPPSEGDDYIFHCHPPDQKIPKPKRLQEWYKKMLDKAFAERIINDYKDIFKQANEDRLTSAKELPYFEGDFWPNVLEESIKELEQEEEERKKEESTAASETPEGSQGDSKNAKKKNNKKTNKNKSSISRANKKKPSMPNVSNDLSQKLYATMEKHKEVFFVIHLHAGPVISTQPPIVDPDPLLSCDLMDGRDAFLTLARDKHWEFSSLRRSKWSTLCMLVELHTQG
In words: BLI; Octet Red; biotinylated recombinant HSF2 immobilised at 100 nM on streptavidin biosensors in PBS; analytes diluted in PBS at 100 nM, association 600 s; Kd with a 1:1 stoichiometry model, global fit with Rmax unlinked by sensor. The following applies: both partners purified. In general terms: Biolayer interferometry detects binding as a change in optical thickness at a sensor tip.

B1: biotinylated recombinant full-length HSF2 (recHSF2) (natural protein, UniProt Q03933 1-536, looked up)
chain: MKQSSNVPAFLSKLWTLVEETHTNEFITWSQNGQSFLVLDEQRFAKEILPKYFKHNNMASFVRQLNMYGFRKVVHIDSGIVKQERDGPVEFQHPYFKQGQDDLLENIKRKVSSSKPEENKIRQEDLTKIISSAQKVQIKQETIESRLSELKSENESLWKEVSELRAKHAQQQQVIRKIVQFIVTLVQNNQLVSLKRKRPLLLNTNGAQKKNLFQHIVKEPTDNHHHKVPHSRTEGLKPRERISDDIIIYDVTDDNADEENIPVIPETNEDVISDPSNCSQYPDIVIVEDDNEDEYAPVIQSGEQNEPARESLSSGSDGSSPLMSSAVQLNGSSSLTSEDPVTMMDSILNDNINLLGKVELLDYLDSIDCSLEDFQAMLSGRQFSIDPDLLVDLFTSSVQMNPTDYINNTKSENKGLETTKNNVVQPVSEEGRKSKSKPDKQLIQYTAFPLLAFLDGNPASSVEQASTTASSEVLSSVDKPIEVDELLDSSLDPEPTQSKLVRLEPLTEAEASEATLFYLCELAPAPLDSDMPLLDS
modifications: biotinylated with EZ-Link NHS-PEG4-Biotin at a molar ratio biotin/protein (3:1)
notes: heat-shock factor 2, recombinant full-length protein, catalogue TP310751; also called recombinant HSF2; source: bought: Origen (TP310751)
For the molecule B1, the Kd came out at 1 nM.
